For experiment [1], the target named is SUMO-1-GST-TDG (SUMO-1-conjugated GST-TDG) (UniProt Q13569).
For experiment [2] the target is unchanged. In words: pull-down; GST pull-down: 10 nM GST or GST-fusion protein and 10 nM XPC-RAD23B with 20 ul glutathione-Sepharose in 100 ul binding buffer (20 mM sodium phosphate pH 7.4, 1 mM EDTA, 150 mM NaCl, 1 mM DTT, 5% glycerol, 0.01% Triton X-100, 100 ug/ml BSA), on ice 1 hour, eight washes, elution with 10 mM glutathione; immunoblot with anti-XPC and anti-GST.

Experiment [3] has as its target T1, GST-SMUG1 (GST-fused SMUG1) (UniProt Q53HV7 1-270).
T1 sequence (looked up): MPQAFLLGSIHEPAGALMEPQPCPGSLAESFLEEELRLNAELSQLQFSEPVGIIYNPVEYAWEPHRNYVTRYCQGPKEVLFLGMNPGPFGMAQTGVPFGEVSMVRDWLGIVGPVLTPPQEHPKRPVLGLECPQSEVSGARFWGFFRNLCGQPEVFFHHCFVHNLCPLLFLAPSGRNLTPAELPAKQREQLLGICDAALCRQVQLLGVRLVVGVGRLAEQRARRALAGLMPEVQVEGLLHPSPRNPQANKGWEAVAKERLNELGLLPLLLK
In words: cell-based or functional assay.

For experiment [4], the target named is GST-TDG (thymine DNA glycosylase fused to glutathione S-transferase, nonmodified) (human, UniProt Q13569 1-410). The experiment is described as follows: cell-based or functional assay.
Experiment [5] has as its target T2, XPC (recombinant human XPC, alone) (human, UniProt Q01831 1-940).
T2 sequence (looked up): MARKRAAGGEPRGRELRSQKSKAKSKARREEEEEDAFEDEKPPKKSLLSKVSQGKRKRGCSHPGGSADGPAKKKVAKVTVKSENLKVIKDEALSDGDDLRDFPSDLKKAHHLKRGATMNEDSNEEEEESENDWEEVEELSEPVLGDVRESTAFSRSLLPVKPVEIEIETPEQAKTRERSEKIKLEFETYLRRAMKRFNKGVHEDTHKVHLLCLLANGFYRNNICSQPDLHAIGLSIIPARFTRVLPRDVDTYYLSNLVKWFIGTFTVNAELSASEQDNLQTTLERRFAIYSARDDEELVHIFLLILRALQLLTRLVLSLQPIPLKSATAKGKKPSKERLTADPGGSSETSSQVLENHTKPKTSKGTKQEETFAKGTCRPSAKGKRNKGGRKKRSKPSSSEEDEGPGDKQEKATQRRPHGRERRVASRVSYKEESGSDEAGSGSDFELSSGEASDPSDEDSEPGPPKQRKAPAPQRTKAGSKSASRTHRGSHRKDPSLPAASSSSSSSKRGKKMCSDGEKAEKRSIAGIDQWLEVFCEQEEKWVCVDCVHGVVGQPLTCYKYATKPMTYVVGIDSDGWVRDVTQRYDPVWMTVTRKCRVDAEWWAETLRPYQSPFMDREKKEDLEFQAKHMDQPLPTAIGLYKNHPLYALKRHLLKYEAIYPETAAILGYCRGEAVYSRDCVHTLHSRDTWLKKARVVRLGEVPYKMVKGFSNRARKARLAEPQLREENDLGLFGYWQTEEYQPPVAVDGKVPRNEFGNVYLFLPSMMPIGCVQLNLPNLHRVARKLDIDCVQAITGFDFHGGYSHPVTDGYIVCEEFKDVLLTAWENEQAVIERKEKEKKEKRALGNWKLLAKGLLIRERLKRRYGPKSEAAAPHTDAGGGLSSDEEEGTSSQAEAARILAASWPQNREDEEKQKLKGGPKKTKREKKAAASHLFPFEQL
The experiment is described as follows: in vitro reconstitution of the heterodimer; XPC-RAD23B-His heterodimer reconstituted in vitro from purified recombinant XPC and RAD23B-His, as described previously [17]. The settings on record: both partners purified.

The record followed here is paper PMC2925305 (Journal of Nucleic Acids, 2010).

GST-TDG (thymine DNA glycosylase fused to glutathione S-transferase, nonmodified), sequence (Q13569 whole entry, the tested form may be a part): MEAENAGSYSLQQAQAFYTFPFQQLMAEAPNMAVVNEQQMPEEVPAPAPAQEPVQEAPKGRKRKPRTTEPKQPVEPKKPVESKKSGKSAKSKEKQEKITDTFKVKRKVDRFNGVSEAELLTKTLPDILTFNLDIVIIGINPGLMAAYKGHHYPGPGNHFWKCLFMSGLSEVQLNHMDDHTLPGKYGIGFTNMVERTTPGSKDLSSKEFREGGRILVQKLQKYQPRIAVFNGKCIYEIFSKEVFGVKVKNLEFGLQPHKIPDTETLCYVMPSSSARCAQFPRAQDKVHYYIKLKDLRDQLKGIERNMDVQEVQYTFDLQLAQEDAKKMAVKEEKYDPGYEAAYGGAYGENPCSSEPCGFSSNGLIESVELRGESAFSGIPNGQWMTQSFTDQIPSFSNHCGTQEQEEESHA

Molecule “XPC-RAD23B-His heterodimer (from UniProt Q01831 1-940; P54727 1-409) (complex)” showed a stimulation by XPC-RAD23B (up to 4 nM, dose-dependent) of uracil excision from G/U mismatch DNA (1.6 nM) by 2 nM SUMO-1-conjugated His-TDG, nicking assay, 120 minutes in experiment [1] of 5 fold. In addition, in experiment [2], the fold more XPC bound than to nonmodified GST-TDG was 2 fold.

B1: XPC-RAD23B-His heterodimer (complex, human)
chain 1: MARKRAAGGEPRGRELRSQKSKAKSKARREEEEEDAFEDEKPPKKSLLSKVSQGKRKRGCSHPGGSADGPAKKKVAKVTVKSENLKVIKDEALSDGDDLRDFPSDLKKAHHLKRGATMNEDSNEEEEESENDWEEVEELSEPVLGDVRESTAFSRSLLPVKPVEIEIETPEQAKTRERSEKIKLEFETYLRRAMKRFNKGVHEDTHKVHLLCLLANGFYRNNICSQPDLHAIGLSIIPARFTRVLPRDVDTYYLSNLVKWFIGTFTVNAELSASEQDNLQTTLERRFAIYSARDDEELVHIFLLILRALQLLTRLVLSLQPIPLKSATAKGKKPSKERLTADPGGSSETSSQVLENHTKPKTSKGTKQEETFAKGTCRPSAKGKRNKGGRKKRSKPSSSEEDEGPGDKQEKATQRRPHGRERRVASRVSYKEESGSDEAGSGSDFELSSGEASDPSDEDSEPGPPKQRKAPAPQRTKAGSKSASRTHRGSHRKDPSLPAASSSSSSSKRGKKMCSDGEKAEKRSIAGIDQWLEVFCEQEEKWVCVDCVHGVVGQPLTCYKYATKPMTYVVGIDSDGWVRDVTQRYDPVWMTVTRKCRVDAEWWAETLRPYQSPFMDREKKEDLEFQAKHMDQPLPTAIGLYKNHPLYALKRHLLKYEAIYPETAAILGYCRGEAVYSRDCVHTLHSRDTWLKKARVVRLGEVPYKMVKGFSNRARKARLAEPQLREENDLGLFGYWQTEEYQPPVAVDGKVPRNEFGNVYLFLPSMMPIGCVQLNLPNLHRVARKLDIDCVQAITGFDFHGGYSHPVTDGYIVCEEFKDVLLTAWENEQAVIERKEKEKKEKRALGNWKLLAKGLLIRERLKRRYGPKSEAAAPHTDAGGGLSSDEEEGTSSQAEAARILAASWPQNREDEEKQKLKGGPKKTKREKKAAASHLFPFEQL
chain 2: MQVTLKTLQQQTFKIDIDPEETVKALKEKIESEKGKDAFPVAGQKLIYAGKILNDDTALKEYKIDEKNFVVVMVTKPKAVSTPAPATTQQSAPASTTAVTSSTTTTVAQAPTPVPALAPTSTPASITPASATASSEPAPASAAKQEKPAEKPAETPVATSPTATDSTSGDSSRSNLFEDATSALVTGQSYENMVTEIMSMGYEREQVIAALRASFNNPDRAVEYLLMGIPGDRESQAVVDPPQAASTGAPQSSAVAAAAATTTATTTTTSSGGHPLEFLRNQPQFQQMRQIIQQNPSLLPALLQQIGRENPQLLQQISQHQEHFIQMLNEPVQEAGGQGGGGGGGSGGIAEAGSGHMNYIQVTPQEKEAIERLKALGFPEGLVIQAYFACEKNENLAANFLLQQNFDED
For the molecule B1, the “stimulation by XPC-RAD23B (up to 2 nM, dose-dependent) of uracil excision from 60-bp G/U mismatch DNA (1.6 nM) by 2.5 pM SMUG1, nicking assay, 120 minutes” value in experiment [3] worked out at 4 fold. Moreover, the “stimulation by XPC-RAD23B (various concentrations) of uracil excision from a 60-bp G/U mismatch DNA (1.6 nM) by 0.42 nM His-TDG, nicking assay, 30°C” value in experiment [4] is 5 fold.

B2: His-tagged RAD23B (RAD23B-His) (natural protein, human, UniProt P54727 1-409, looked up)
chain: MQVTLKTLQQQTFKIDIDPEETVKALKEKIESEKGKDAFPVAGQKLIYAGKILNDDTALKEYKIDEKNFVVVMVTKPKAVSTPAPATTQQSAPASTTAVTSSTTTTVAQAPTPVPALAPTSTPASITPASATASSEPAPASAAKQEKPAEKPAETPVATSPTATDSTSGDSSRSNLFEDATSALVTGQSYENMVTEIMSMGYEREQVIAALRASFNNPDRAVEYLLMGIPGDRESQAVVDPPQAASTGAPQSSAVAAAAATTTATTTTTSSGGHPLEFLRNQPQFQQMRQIIQQNPSLLPALLQQIGRENPQLLQQISQHQEHFIQMLNEPVQEAGGQGGGGGGGSGGIAEAGSGHMNYIQVTPQEKEAIERLKALGFPEGLVIQAYFACEKNENLAANFLLQQNFDED
Consider B2, for which, in experiment [5], the binding result is on record as “binds”.
